Assay [1] deals with CrAPE1_(C128S), recombinant soluble domain of Chlamydomonas APE1 with C128S (Chlamydomonas reinhardtii). The assay is described as follows: SEC-MALS. On the technique in general: Size exclusion chromatography separates by hydrodynamic size, large species first.
Assay [2] has as its target CrAPE1_(C247S), recombinant soluble domain of Chlamydomonas APE1 with C247S (Chlamydomonas reinhardtii). Nature of the assay: SEC-MALS.

The term stoichiometry N denotes a count of units in the complex or per binding partner. Regarding “CrAPE1_(C128S), recombinant soluble domain of Chlamydomonas APE1 with C128S (domain or fragment)”, the stoichiometry N in assay [1] stood at 2.

In the case of “CrAPE1_(C247S), recombinant soluble domain of Chlamydomonas APE1 with C247S (domain or fragment)”, the stoichiometry N in assay [2] is 2.
